Entries after “also recorded” stand apart in the source; their conditions may differ.
Key:
[1] = target: substrate peptide for Src kinase (SEQ ID NO:1); assay: cell-based or functional assay
[2] = tested on: substrate peptide for Src kinase (SEQ ID NO:1)
Src kinase = Src kinase (Homo sapiens, UniProt P12931); assay: SERS peptide-conjugated nanoprobe assay of Src kinase inhibition; format: biochemical; conditions: with increasing concentration of inhibitor
Description: Src kinase SERS probes were tested and calibrated using purified p60 cellular Src kinase first. The real time peptide SERS spectra were recorded in the reaction with 10 nM Src kinase at 37° C. […] The phosphorylation level was defined as the normalized ratio of peak intensities between 1004 cm^−1 and 1260 cm^−1. […] The real time phosphorylation level in the reactions was characterized with various concentrations of Src kinase. […] The reaction constants of the Src kinase at different concentration can be calculated using the Michaelis-Maten model.
Different Src kinase inhibitors were tested using the peptide-conjugated nanoprobe assay. The phosphorylation level of the Src kinase with the addition of the inhibitors PP2, PP3 and SU5656 was tested. […] The IC50 concentrations for the three inhibitors were characterized respectively.
A microscopy system with Raman spectrometer was used to acquire Raman scattering spectra from single nanocrescents. […] A 785 nm semiconductor laser was used in our experiments as the excitation source of Raman scattering, and the laser beam was focused by a 40× objective lens on the nanocrescent. The excitation power was measured by a photometer (Newport, Calif.) to be ˜0.8 mW. The Raman scattering light was then collected through the same optical pathway through a long-pass filter and analyzed by the spectrometer.

Sequence of Src kinase (P12931 whole entry): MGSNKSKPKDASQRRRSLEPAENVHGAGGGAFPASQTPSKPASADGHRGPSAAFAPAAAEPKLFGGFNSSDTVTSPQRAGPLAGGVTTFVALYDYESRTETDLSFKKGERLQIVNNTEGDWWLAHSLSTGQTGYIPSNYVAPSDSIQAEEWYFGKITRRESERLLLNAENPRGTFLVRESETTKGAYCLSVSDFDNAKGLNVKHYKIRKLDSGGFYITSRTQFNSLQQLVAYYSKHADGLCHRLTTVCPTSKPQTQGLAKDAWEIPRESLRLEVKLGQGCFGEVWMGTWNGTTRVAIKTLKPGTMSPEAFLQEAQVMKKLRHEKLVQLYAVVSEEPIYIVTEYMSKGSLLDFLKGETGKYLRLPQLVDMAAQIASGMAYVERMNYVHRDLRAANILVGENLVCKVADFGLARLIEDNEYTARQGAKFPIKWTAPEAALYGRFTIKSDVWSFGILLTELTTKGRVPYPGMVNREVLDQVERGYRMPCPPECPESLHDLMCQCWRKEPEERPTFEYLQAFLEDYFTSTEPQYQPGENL

Compound | phosphorylation level of the Src kinase with the addition of the inhibitors (Src kinase) | other results
virus Src protein (in crude lysate of transfected 3T9 mouse fibroblast cells) (enzyme) | – | phosphorylation level (SERS, crude cell lysate) [1]: 3 times
purified p60 cellular Src kinase | – | minimal detectable concentration of Src kinase (SERS phosphorylation assay) [2]: the minimal detectable concentration is above 10 pM; phosphorylation level (normalized ratio of peak intensities between 1004 cm^-1 and 1260 cm^-1, SERS) [2]: increased more than 6-fold after the reactions with 10 nM Src kinase; also recorded: The phosphorylation level saturated at around 7 for high concentration of Src kinase
Nc1ncnc2c1cnn2-c1ccccc1 [PP3] | decreases significantly | –
CN(C)S(=O)(=O)c1ccc2c(c1)/C(=C/c1cc3c([nH]1)CCCC3)C(=O)N2 [SU5656] | decreases significantly | –
CC(C)(C)n1nc(-c2ccc(Cl)cc2)c2c(N)ncnc21 [PP2] | decreases significantly | –
